Patent US20110165660A1, “ENGINEERED MICROORGANISMS WITH ENHANCED FERMENTATION ACTIVITY” (VERDEZYNE, INC., priority 2009, published 2011)

System: xylose isomerase activity
Assay: Heterologous xylose isomerase expression in engineered yeast (active yes/no)
Conditions: xylose isomerase of the donor organism expressed in engineered yeast (S. cerevisiae)

| Molecule | Active? (yes/no) |
| --- | --- |
| Streptomyces diastaticus subsp diastaticus: xylose isomerase of this donor organism expressed in S. cerevisiae | No |
| Thermus thermophilus: xylose isomerase (Type 1) of this donor organism expressed in S. cerevisiae | Yes |
| Actinoplanes missouriensis: xylose isomerase of this donor organism expressed in S. cerevisiae | No |
| Bacteroides thetaiotaomicron: xylose isomerase of this donor organism expressed in S. cerevisiae | Yes |
| Streptomyces rubiginosus: xylose isomerase of this donor organism expressed in S. cerevisiae | No |
| Bacillus subtilis: xylose isomerase of this donor organism expressed in S. cerevisiae (protein, UniProt P0CI80 1-445, looked up, expressed in S. cerevisiae) Xylose isomerase: MAQSHSSSINYFGSANKVVYEGKDSTNPLAFKYYNPQEVIGGKTLKEHLRFSIAYWHTFTADGTDVFGAATMQRPWDHYKGMDLAKMRVEAAFEMFEKLDAPFFAFHDRDIAPEGSTLKETNQNLDMIMGMIKDYMRNSGVKLLWNTANMFTNPRFVHGAATSCNADVFAYAAAQVKKGLETAKELGAENYVFWGGREGYETLLNTDLKFELDNLARFMHMAVDYAKEIGYTGQFLIEPKPKEPTTHQYDTDAATTIAFLKQYGLDNHFKLNLEANHATLAGHTFEHELRMARVHGLLGSVDANQGHPLLGWDTDEFPTDLYSTTLAMYEILQNGGLGSGGLNFDAKVRRSSFEPDDLIYAHIAGMDAFARGLKVAHKLIEDRVFEDVIQHRYRSFTEGIGLEIIEGRANFHTLEQYALNHKSIKNESGRQEKLKAILNQYILEV | No |
| Burkholderia xenovorans: xylose isomerase of this donor organism expressed in S. cerevisiae (protein, UniProt Q13RB8 1-440, looked up) Xylose isomerase: MSYFEHIPEIRYEGPQSDNPLAYRHYDKSKKVLGKTLEEHLRIAVCYWHTFVWPGVDIFGQGTFRRPWQQAGDAMERARQKADSAFEFFSKLGTPYYTFHDTDVSPEGSSLKEYSENFLRITDYLARKQEDTGIKLLWGTANLFSHPRYAAGAATSPDPEVFAFAATQVRHALDATQRLGGDNYVLWGGREGYDTLLNTDLMRERDQLARFLHMVVDHAHKIGFKGSLLIEPKPQEPTKHQYDYDVATVHGFLLQHGLEKEIRVNIEANHATLAGHSFHHEIATAYALGIFGSVDANRGDPQNGWDTDQFPNSVEELTLAFYEILKHGGFTTGGMNFDSKVRRQSVDPEDLFYGHIGAIDNLALAVERAAVLIENDRLDQFKRQRYAGWDADFGRKILSGDYSLSTLATDALARGLNPQHASGHQELMENIVNQAIYSGR | No |
| Clostridium thermosulfurogenes: xylose isomerase of this donor organism expressed in S. cerevisiae (protein, UniProt P19148 1-439, looked up) Xylose isomerase: MNKYFENVSKIKYEGPKSNNPYSFKFYNPEEVIDGKTMEEHLRFSIAYWHTFTADGTDQFGKATMQRPWNHYTDPMDIAKARVEAAFEFFDKINAPYFCFHDRDIAPEGDTLRETNKNLDTIVAMIKDYLKTSKTKVLWGTANLFSNPRFVHGASTSCNADVFAYSAAQVKKALEITKELGGENYVFWGGREGYETLLNTDMEFELDNFARFLHMAVDYAKEIGFEGQFLIEPKPKEPTKHQYDFDVANVLAFLRKYDLDKYFKVNIEANHATLAFHDFQHELRYARINGVLGSIDANTGDMLLGWDTDQFPTDIRMTTLAMYEVIKMGGFDKGGLNFDAKVRRASFEPEDLFLGHIAGMDAFAKGFKVAYKLVKDRVFDKFIEERYASYKDGIGADIVSGKADFRSLEKYALERSQIVNKSGRQELLESILNQYLFAE | No |
| Escherichia coli: xylose isomerase of this donor organism expressed in S. cerevisiae (protein, UniProt P00944 1-440, looked up) Xylose isomerase: MQAYFDQLDRVRYEGSKSSNPLAFRHYNPDELVLGKRMEEHLRFAACYWHTFCWNGADMFGVGAFNRPWQQPGEALALAKRKADVAFEFFHKLHVPFYCFHDVDVSPEGASLKEYINNFAQMVDVLAGKQEESGVKLLWGTANCFTNPRYGAGAATNPDPEVFSWAATQVVTAMEATHKLGGENYVLWGGREGYETLLNTDLRQEREQLGRFMQMVVEHKHKIGFQGTLLIEPKPQEPTKHQYDYDAATVYGFLKQFGLEKEIKLNIEANHATLAGHSFHHEIATAIALGLFGSVDANRGDAQLGWDTDQFPNSVEENALVMYEILKAGGFTTGGLNFDAKVRRQSTDKYDLFYGHIGAMDTMALALKIAARMIEDGELDKRIAQRYSGWNSELGQQILKGQMSLADLAKYAQEHHLSPVHQSGRQEQLENLVNHYLFDK | No |
| Bacillus licheniformis: xylose isomerase of this donor organism expressed in S. cerevisiae (protein, UniProt P77832 1-448, looked up) Xylose isomerase: MFFRNIGMIEYEGADSENPYAFKYYNPDEFVGGKTMKEHLRFAVAYWHTFDADGKDPFGDGTMFRAWNRLTHPLDKAKARAEAAFEFFEKLGVPYFCFHDVDIVDEGATLRETFTYLDQMSSFLKEMMETSHVQLLWNTANMFTHPRYVHGAATSCNADVYAYAAAKVKKGLDIAKELGAENYVFWGGREGYETLLNTDMKLELENLSSFYRMAVEYAREIGFDGQFLIEPKPKEPTKHQYDFDAATTIAFLETYGLKDHFKLNLEANHATLAGHTFEHELRVAALHDMLGSIDANQGDLLLGWDTDEFPTDLYSAVLAMYEILKAGGFKTGGINFDAKVRRPSFADEDLFHAHIAGMDTYAVGLKVASRLLEDKALDQVIEERYESYTKGIGLEIKEGRTDLKKLAAYALENDHIENQSGRQERLKATVNRYLLNALREAPAGKETH | No |
| Staphylococcus xylosus: xylose isomerase of this donor organism expressed in S. cerevisiae (protein, UniProt P27157 1-439, looked up) Xylose isomerase: MSYFDINKVNYEGPKSNNAFSFKYYNPEEKLGNHSMSELLRFSVAYWHTFTADLSDPFGVGVAERDWDSLDEMEKAKARVEAIFEFMEKTRIDYFCFHDVDISPEGASLKESNENLDIIVELIKEKMDQTGKKLLWNTTNNFTHERFVHGAATSSNAEVFAYAAAKVKKSLEIAKKLGSENFVFWGGREGYESLLNTNMKLELDNLATFFKMAKSYADEIGYTGQFLIEPKPKEPTTHQYDTDVATAHAFLQKYDLDKDFKFNIEANHATLAGHTFQHELRYARDNNMLGSVDANQGHPLLGWDTDESTDVYDTTLAMYEILKNGGLAPGGLNFDAKPRRTSFKQEDLILTHIAGMDTFALGLRVAYKMIEDNFFENIMDEKYKSFNEGIGKKIVEGETSLKELEDYAFNINTINNTSDHLEVIKSQINQYILNINNKD | No |
| Psudomonas savastanoi: xylose isomerase of this donor organism expressed in S. cerevisiae (protein, UniProt Q48J73 1-438, looked up, expressed in S. cerevisiae) Xylose isomerase: MPYFPAVDKVRYEGPDSDSPLAFRHYDADKLILGKPMREHLRMAACYWHTFVWPGADMFGVGTFKRPWQGSGDPLELAIGKAETAFEFFSKLGIDYYSFHDTDVAPEGSSLKEYRNNFAQMIDQLERHQEQTGIKLLWGTANCFSNPRFAAGAASNPDPEVFAYAATQVFSAMNATQRLKGANYVLWGGREGYETLLNTDLRQEREQLGRFMRMVVEHKHKIGFKGDLLIEPKPQEPTKHQYDYDSATVFGFLQQYGLEKEIKVNIEANHATLAGHSFHHEIATAVSLGIFGSIDANRGDPQNGWDTDQFPNSVEEMTLATYEILKAGGFTNGGYNFDSKVRRQSLDEVDLFHGHVAAMDVLALALERAAAMVQNDKLQQFKDQRYAGWQQPFGKSLLAGEFSLESLAKHAFDKDLNPQAVSGRQELLEGVVNRFIYF | No |
| Pseudomonas syringae: xylose isomerase of this donor organism expressed in S. cerevisiae (protein) MHPRVLEVTERLIARSRDTRQRYLQLIRGAASDGPMRGKLQCANFAHGVAACGPEDKQSLRLMNAANVAIVSSYNEMLSAHQPYEHFPAQIKQALRDIGSVGQFAGGVPAMCDGVTQGEPGMELAIASREVIAMSTAIALSHNMFDAAMMLGICDKIVPGLMMGALRFGHLPTIFVPGGPMVSGISNKEKADVRQRYAEGKASREELLDSEMKSYHGPGTCTFYGTANTNQLVMEVMGMHLPGASFVNPYTPLRDALTAEAARQVTRLTMQSGSFMPIGEIVDERSLVNSIVALHATGGSTNHTLHMPAIAQAAGIQLTWQDMADLSEVVP | No |
| Arabidopsis thaliana: xylose isomerase of this donor organism expressed in S. cerevisiae (protein, UniProt Q9FKK7 1-477, looked up) Xylose isomerase: MKKVEFFMLLLCFIAASSLVSADPPTCPADLGGKCSDSDDWQGDFFPEIPKIKYEGPSSKNPLAYRWYNAEEEILGKKMKDWFRFSVAFWHTFRGTGGDPFGAATKYWPWEDGTNSVSMAKRRMRANFEFLKKLGVDWWCFHDRDIAPDGTTLEESNKNLDEVIELAKELQKGSKIKPLWGTAQLFLHPRYMHGGATSSEVGVYAYAAAQVKKAMEVTHYLGGENYVFWGGREGYQTLLNTDMGRELDHLARFFEAAVAYKKKIGFKGTLLIEPKPQEPTKHQYDWDAATAANFLRKYGLIDEFKLNIECNHATLSGHTCHHELETARINGLLGNIDANTGDAQTGWDTDQFLTDVGEATMVMMSVIKNGGIAPGGFNFDAKLRRESTDVEDLFIAHISGMDTMARGLRNAVKILEEGSLSELVRKRYATWDSELGKQIEEGKADFEYLEKKAKEFGEPKVSSAKQELAEMIFQSAM | No |
